How the values were obtained:
CD80Ig = target: T1, CD80Ig (UniProt P33681 35-242); assay: SPR, CD80Ig immobilized, monomeric analytes
T1 construct: extracellular domain; also called soluble CD80Ig; B7-1 Ig
Procedure: (§1) Association and disassociation analyses were performed using BIA evaluation 2.1 Software (Pharmacia). Association rate constants $kon$ were calculated in two ways, assuming both homogenous single-site interactions and parallel two-site interactions. For single-site interactions, $kon$ values were calculated according to the equation $R_t=Req(1-\exp^{-ks(t-t_0)})$, where R_t is a response at a given time, t; $Req$ is the steady-state response; t_0 is the time at the start of the injection; and $k_s=dR/dt=kon \cdot Ckoff$, and where C is a concentration of analyte, calculated in terms of monomeric binding sites. For two-site interactions $kon$ values were calculated according to the equation $R_t=Req1(1-\exp^{-ks1(t-t_0)})+Req2(1-[…])$. For each model, the values of $kon$ were determined from the calculated slope (to about 70% maximal association) of plots of k_s versus C.

CD86Ig = target: T2, CD86Ig (UniProt P42081 24-247); assay: SPR, CD86Ig immobilized, monomeric analytes
T2 construct: extracellular domain; also called soluble CD86Ig; B7-2 Ig
Procedure: as §1

T1 sequence (P33681 whole entry, the tested form may be a part): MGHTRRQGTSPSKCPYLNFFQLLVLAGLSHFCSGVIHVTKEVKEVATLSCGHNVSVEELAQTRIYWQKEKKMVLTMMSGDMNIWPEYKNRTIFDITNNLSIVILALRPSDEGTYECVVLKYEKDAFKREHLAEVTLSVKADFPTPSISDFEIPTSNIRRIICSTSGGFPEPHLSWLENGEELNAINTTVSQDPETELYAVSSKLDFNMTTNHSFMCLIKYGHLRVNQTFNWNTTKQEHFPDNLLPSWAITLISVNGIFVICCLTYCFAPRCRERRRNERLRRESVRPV
T2 sequence (P42081 24-247): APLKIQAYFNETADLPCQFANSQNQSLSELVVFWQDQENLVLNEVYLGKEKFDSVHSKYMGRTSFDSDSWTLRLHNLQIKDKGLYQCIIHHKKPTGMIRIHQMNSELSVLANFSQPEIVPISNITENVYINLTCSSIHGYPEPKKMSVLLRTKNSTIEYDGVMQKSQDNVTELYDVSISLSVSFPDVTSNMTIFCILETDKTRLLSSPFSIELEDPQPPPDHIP

fold higher affinity than CTLA4X120S (CD80Ig): ~2 fold
fold slower rate of dissociation than CTLA4X120S (CD80Ig): ~3 fold
fold higher affinity than CTLA4X120S (CD86Ig): ~2 fold
fold slower rate of dissociation than CTLA4X120S (CD86Ig): ~3 fold
B1: L104EA29YXC120S (receptor)
chain: MHVAQPAVVLASSRGIASFVCEYASPGKYTEVRVTVLRQADSQVTEVCAATYMMGNELTFLDDSICTGTSSGNQVNLTIQGLRAMDTGLYICKVELMYPPPYYEGIGNGTQIYVIDPEPSPDSD
notes: Monomeric; prepared in an identical manner to CTLA4XC120S; also called single chain L104EA29Y extracellular domain
